The text below walks through data of patent US20180112003A1 (UNIVERSITY OF SOUTHERN CALIFORNIA, published 2018).

Assay [1] deals with T1, human luteinizing hormone receptor (LHR) (human, UniProt P22888 27-699).
T1 construct: Endogenous LHR on human ovarian carcinoma cell lines (ES-2, SKOV3); also called LHR on ES-2 human ovarian carcinoma cells; LHR on SKOV3 cells
The assay can be described thus: flow cytometry on ES-2 human ovarian carcinoma cells; ratio of antibody MFI to isotype MFI. An excerpt: (§1) Antibodies against the […] extracellular hormone binding domain of LHR were generated by repeated immunization of 4 week-old-BALB/c and NIH Swiss mice with genetically engineered LHR-Fc. As shown below in FIG. 3, the leader sequence and first part of the human LHR G-protein was used to generate the LHR-Fc used in the immunization and screening methods to generate and identify high binding antibodies. […] A typical flow cytometry screen of hybridomas positive by initial ELISA screen using LHR-Fc coated plates is shown below in FIG. 4 using the ES-2 ovarian carcinoma cell line. […] These few candidate hybridomas were then subcloned by dilution in 96 well plates and expanded for freezing in vials. After further screening by flow cytometry, specific subclones were selected for large scale production using 2L vessels (GRrex, 100L, Wolfson). Filtered supernatants were then subjected to antibody purification using tandon protein A or G and ion exchange chromatography methods performed routinely in the laboratory. Once purified, five antibody subclones designated 8B7-3, 5F4-21, 5B1-1, 2H11-37, and 138-2 were sequenced to facilitate the engineering of single chain genes used for the construction of LHR CARs described below.
Background: In flow cytometry, cells or beads pass a laser one at a time.

Assay [2] concerns the target T1, human luteinizing hormone receptor (LHR). The assay is described as follows: flow cytometry screen of LHR-Fc ELISA positive hybridomas on ES-2 ovarian carcinoma cells; ratio of antibody MFI to isotype MFI.
From the text: as §1

T1 sequence (P22888 27-699 limits assumed): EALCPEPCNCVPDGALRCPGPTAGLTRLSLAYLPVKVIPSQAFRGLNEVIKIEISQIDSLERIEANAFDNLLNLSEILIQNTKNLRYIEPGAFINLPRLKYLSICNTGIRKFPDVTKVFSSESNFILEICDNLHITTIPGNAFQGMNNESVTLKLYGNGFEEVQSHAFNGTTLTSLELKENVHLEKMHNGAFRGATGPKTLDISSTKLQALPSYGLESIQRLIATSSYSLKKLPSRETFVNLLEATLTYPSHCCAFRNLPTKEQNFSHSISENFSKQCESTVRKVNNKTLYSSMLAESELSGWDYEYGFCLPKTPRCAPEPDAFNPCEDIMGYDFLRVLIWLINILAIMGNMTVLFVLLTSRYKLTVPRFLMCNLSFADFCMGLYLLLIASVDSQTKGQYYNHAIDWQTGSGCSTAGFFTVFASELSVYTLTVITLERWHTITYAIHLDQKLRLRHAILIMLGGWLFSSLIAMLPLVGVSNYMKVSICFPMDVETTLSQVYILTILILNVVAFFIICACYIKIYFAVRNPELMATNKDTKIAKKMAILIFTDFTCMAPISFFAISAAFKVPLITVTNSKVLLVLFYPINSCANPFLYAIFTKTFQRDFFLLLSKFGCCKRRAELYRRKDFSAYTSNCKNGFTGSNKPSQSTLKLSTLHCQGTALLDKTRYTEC

B1: LHR Antibody #5F4-21 (antibody, V domains shown)
VH: EVQLQESGPDLVKPSQSLSLTCTVTGYSITSGYGWHWIRQFPGNKLEWMGYIHYSGSTTYNPSLKSRISISRDTSKNQFFLQLNSVTTEDTATYYCARSLRYWGQGTTLTVSS
VL: DIVMTQTPAIMSASPGQKVTITCSASSSVNYMHWYQQKLGSSPKLWIYDTSKLAPGVPARFSGSGSGTSYSLTISSMEAEDAASYFCHQWSSYPYTFGSGTKLEIK
notes: Mouse monoclonal antibody from a hybridoma subclone
Turning to B1, the binding result in assay [1] was “binds”.

B2: LHR Antibody #8B7-3 (antibody, V domains shown)
VH: QVKLQQSGPELVKPGASVKISCKASGYSFTGYYMHWVKQSHGNILDWIGYIYPYNGVSSYNQKFKGKATLTVDKSSSTAYMELRSLTSEDSAVYYCARERGLYQLRAMDYWGQGTSVTVSS
VL: DIVLTQTPATLSVTPGDSVSLSCRASQSISNNLHWYQQKSHESPRLLIKNASQSISGIPSKFSGSGSGTDFTLRINSVETEDFGMYFCQQSNSWPYTFGSGTKLEIK
notes: Mouse monoclonal antibody from a hybridoma; also called hybridoma 8B7
B2: the binding result in assay [2] is “binds”.
